Laboratory results reported in patent US20230331809A1 (Zymeworks, published 2023).
Where a chain is given by its changes, count along the chain named.

Experiments:
[1] = target: T1, PD-L1 (Programmed death-ligand 1) on cells (UniProt Q9NZQ7 19-290); assay: cell-based or functional assay
[2] = target: T2, CD3 (Cluster of Differentiation 3) on Jurkat cells and on pan T cells (human, UniProt P07766 23-207); assay: flow cytometry on pan T cells (CD3), MFI
T2 construct: whole, on cells

[3] = target: T2, CD3 (Cluster of Differentiation 3) on …; assay: flow cytometry on human pan T cells, separate experiment (FIG. 32)
[4] = target: T3, PD-1 (Programmed Cell Death Protein 1) on cells (UniProt Q15116 25-288); assay: flow cytometry on PD-1 transfected CHO-S cells, MFI; * poor fit
T3 construct: whole, on cells

[5] = target: T2, CD3 (Cluster of Differentiation 3) on …; assay: cell ELISA on Jurkat cells (CD3), OD450
[6] = target: T2, CD3 (Cluster of Differentiation 3) on …; assay: cell ELISA on Jurkat cells (CD3), OD450; reference sample
[7] = target: T1, PD-L1 (Programmed death-ligand 1) on …; assay: flow cytometry on PD-L1 transfected CHO-S cells, MFI; * poor fit
[8] = target: T2, CD3 (Cluster of Differentiation 3) on …; assay: cell ELISA on Jurkat cells (CD3), OD450; remark: listed apart in the source
[9] = target: T2, CD3 (Cluster of Differentiation 3) on …; assay: flow cytometry on pan T cells (CD3), MFI; remark: listed apart in the source
[10] = target: T2, CD3 (Cluster of Differentiation 3) on …; assay: flow cytometry on pan T cells (CD3), MFI; sample treated with uPa (variant has no mask)
[11] = target: T2, CD3 (Cluster of Differentiation 3) on …; assay: flow cytometry on pan T cells (CD3), MFI; sample treated with uPa; EC50 relative to v30421 -uPa
[12] = target: T4, CDH3 (Cadherin 3) on JIMT1 cells (UniProt P22223 108-829, limits assumed); assay: flow cytometry on JIMT1 cells (CDH3), MFI
T4 construct: whole, on cells; also called P-cadherin

[13] = target: T4, CDH3 (Cadherin 3) on JIMT1 cells; assay: flow cytometry on JIMT1 cells (CDH3), MFI; EC50 relative to v17214
[14] = target: T5, CD40 (Cluster of Differentiation 40) on cells (UniProt P25942 21-277, limits assumed); assay: flow cytometry on Raji cells (CD40), MFI; sample treated with uPa (variant has no cleavage site)
T5 construct: whole, on cells

[15] = target: T5, CD40 (Cluster of Differentiation 40) on …; assay: cell-based or functional assay
[16] = target: T5, CD40 (Cluster of Differentiation 40) on …; assay: flow cytometry on Raji cells (CD40), MFI
[17] = target: T5, CD40 (Cluster of Differentiation 40) on …; assay: flow cytometry on Raji cells (CD40), MFI; sample treated with uPa; EC50 relative to v32477 -uPa
[18] = target: T5, CD40 (Cluster of Differentiation 40) on …; assay: flow cytometry on Raji cells (CD40), MFI; EC50 relative to v32477 -uPa
[19] = target: T6, Mesothelin (MSLN) on OVCAR3 cells (UniProt Q13421 296-598); assay: flow cytometry on OVCAR3 cells (MSLN), MFI
T6 construct: whole, on cells

[20] = target: T6, Mesothelin (MSLN) on OVCAR3 cells; assay: flow cytometry on OVCAR3 cells (MSLN), MFI; EC50 relative to v16417
[21] = target: T4, CDH3 (Cadherin 3) on JIMT1 cells; assay: flow cytometry on JIMT1 cells (CDH3), MFI; reference sample
[22] = target: T2, CD3 (Cluster of Differentiation 3) on …; assay: cell ELISA on Jurkat cells (CD3), OD450; uncleavable variant, sample treated with uPa
[23] = target: T3, PD-1 (Programmed Cell Death Protein 1) …; assay: flow cytometry on PD-1 transfected CHO-S cells, MFI; * poor fit; uncleavable variant, sample treated with uPa
[24] = target: T2, CD3 (Cluster of Differentiation 3) on …; assay: flow cytometry on pan T cells (CD3), MFI; sample treated with uPa (uncleavable linkers)
[25] = target: T2, CD3 (Cluster of Differentiation 3) on …; assay: cell-based or functional assay
[26] = target: T2, CD3 (Cluster of Differentiation 3) on …; assay: flow cytometry on human pan T cells
[27] = target: T1, PD-L1 (Programmed death-ligand 1) on …; assay: flow cytometry on PD-L1 transfected CHO-S cells, MFI; * poor fit; uncleavable variant, sample treated with uPa
[28] = target: T2, CD3 (Cluster of Differentiation 3) on …; assay: cell ELISA on Jurkat cells (CD3), OD450; EC50 relative to v30421; uncleavable variant, sample treated with uPa
[29] = target: T2, CD3 (Cluster of Differentiation 3) on …; assay: cell ELISA on Jurkat cells (CD3), OD450; EC50 relative to v30421
[30] = target: T3, PD-1 (Programmed Cell Death Protein 1) …; assay: flow cytometry on PD-1 transfected CHO-S cells, MFI; * poor fit; uncleavable variant, table and legend box disagree on the uPa treatment

B1: Variant 32497: Half-masked CD3 × Her2 Fab × scFv Fc, PD-1 KO attached to HC (bispecific antibody, human IgG1, kappa, L234A L235A)
heavy: not shown
light: DIQMTQSPSSLSASVGDRVTMTCSASSSVSYMNWYQQKPGKAPKRWIYDSSKLASGVPARFSGSGSGTDYTLTISSLQPEDFATYYCQQWSRNPPTFGGGTKLQITRTVAAPSVFIFPPSDEQLKSGTASVVCLLNNFYPREAKVQWKVDNALQSGNSQESVTEQDSKDSTYSLSSTLTLSKADYEKHKVYACEVTHQGLSSPVTKSFNRGEC
chain: not shown
notes: also called v32497; variant with a non-functional PD-1 domain appended to the heavy chain
TDCC potency on JIMT-1 target cells, fold EC50 vs unmasked v30421 [1]: 55 fold
EC50 [2]: 13 nM
fold reduction in binding vs unmasked control [3]: 6 fold

B2: Variant 30421: CD3 × Her2 Fab × scFv Fc without mask (bispecific antibody, human IgG1, kappa, L234A L235A)
heavy: not shown
light: B1 light
chain: not shown
notes: also called v30421; unmasked variant
Fold wrt v31931 [4]: > 35 fold
EC50 [5]: 1.2 nM
EC50 [2]: 2.1 nM
Fold wrt WT [6]: 1 fold
Fold wrt v31929 [7]: > 570 fold
EC50 [8]: 1.2 nM
EC50 [9]: 2.3 nM
EC50 [10]: 5.3 nM
Fold wrt WT [11]: 2.3 fold

B3: Variant 28662: HA PD-1:WT PD-L1 masked aCDH3 Mab, uncleavable (antibody, human IgG1, lambda)
heavy: not shown
light: AFTVTVPKDLYVVEYGSNMTIECKFPVEKQLDLAALIVYWEMEDKNIIQFVHGEEDLKVQHSSYRQRARLLKDQLSLGNAALQITDVKLQDAGVYRCMISYGGADYKRITVKVNAEAAAKEAAAKQSALTQPASVSGSPGQSITISCTGTSNDVGAYNYVSWYQQHPGKAPKLMISEVNKRPSGVSNRFSGSKSGNTASLTISGLQAEDEADYYCSSFTSGLPWVVFGGGTKLTVLGQPKAAPSVTLFPPSSEELQANKATLVCLISDFYPGAVTVAWKADSSPVKAGVETTTPSKQSNNKYAASSYLSLTPEQWKSHRSYSCQVTHEGSTVEKTVAPTECS
EC50 [12]: 9.8 nM
Fold wrt WT [13]: 28 fold

B4: Variant 32478: HA PD-1:WT PD-L1 masked aCD40 Mab, uncleavable (antibody, human IgG1, kappa)
heavy: not shown
light: AFTVTVPKDLYVVEYGSNMTIECKFPVEKQLDLAALIVYWEMEDKNIIQFVHGEEDLKVQHSSYRQRARLLKDQLSLGNAALQITDVKLQDAGVYRCMISYGGADYKRITVKVNAEAAAKEAAAKDIQMTQSPSSVSASVGDRVTITCRASQGIYSWLAWYQQKPGKAPNLLIYTASTLQSGVPSRFSGSGSGTDFTLTISSLQPEDFATYYCQQANIFPLTFGGGTKVEIKRTVAAPSVFIFPPSDEQLKSGTASVVCLLNNFYPREAKVQWKVDNALQSGNSQESVTEQDSKDSTYSLSSTLTLSKADYEKHKVYACEVTHQGLSSPVTKSFNRGEC
notes: also called v32478
EC50 [14]: 65 nM
EC50, CD40 RGA, FcgRIIB CHOK1 (sample v32478 + uPa) [15]: 4.28 µg/mL
EC50, CD40 RGA, FcgRIIB CHOK1 (sample v32478 - uPa) [15]: 5.43 µg/mL
Fold wrt WT (EC50), CD40 RGA, FcgRIIB CHOK1 (sample v32478 + uPa) [15]: 88.2 fold
Fold wrt WT (EC50), CD40 RGA, FcgRIIB CHOK1 (sample v32478 - uPa) [15]: 112 fold
EC50 [16]: 41 nM
Fold wrt WT [17]: 67 fold
Fold wrt WT [18]: 42 fold

B5: Variant 31729: HA PD-1:WT PD-L1 masked aMSLN Mab, PD-L1 cleavable (not treated with uPa) (antibody, human IgG1, kappa)
heavy: not shown
light: AFTVTVPKDLYVVEYGSNMTIECKFPVEKQLDLAALIVYWEMEDKNIIQFVHGEEDLKVQHSSYRQRARLLKDQLSLGNAALQITDVKLQDAGVYRCMISYGGADYKRITVKVNAEAAAKEAAAKMSGRSANADIQMTQSPSSLSASVGDRVTITCSASSSVSYMHWYQQKSGKAPKLLIYDTSKLASGVPSRFSGSGSGTDFTLTISSLQPEDFATYYCQQWSKHPLTFGQGTKLEIKRTVAAPSVFIFPPSDEQLKSGTASVVCLLNNFYPREAKVQWKVDNALQSGNSQESVTEQDSKDSTYSLSSTLTLSKADYEKHKVYACEVTHQGLSSPVTKSFNRGEC
EC50 [19]: 74 nM
Fold wrt WT (EC50) [20]: 31 fold

B6: Variant 17214: Unmasked aCDH3 mAb (antibody, human IgG1, lambda)
heavy: not shown
light: GQSALTQPASVSGSPGQSITISCTGTSNDVGAYNYVSWYQQHPGKAPKLMISEVNKRPSGVSNRFSGSKSGNTASLTISGLQAEDEADYYCSSFTSGLPWVVFGGGTKLTVLGQPKAAPSVTLFPPSSEELQANKATLVCLISDFYPGAVTVAWKADSSPVKAGVETTTPSKQSNNKYAASSYLSLTPEQWKSHRSYSCQVTHEGSTVEKTVAPTECS
Fold wrt WT [21]: 1 fold
EC50 [12]: 0.36 nM

B7: Variant 30423: HA PD-1:WT PD-L1 masked CD3 × Her2 Fab × scFv Fc, with an uncleavable linker (bispecific antibody, human IgG1, kappa, L234A L235A)
heavy: not shown
light: AFTVTVPKDLYVVEYGSNMTIECKFPVEKQLDLAALIVYWEMEDKNIIQFVHGEEDLKVQHSSYRQRARLLKDQLSLGNAALQITDVKLQDAGVYRCMISYGGADYKRITVKVNAEAAAKEAAAKDIQMTQSPSSLSASVGDRVTMTCSASSSVSYMNWYQQKPGKAPKRWIYDSSKLASGVPARFSGSGSGTDYTLTISSLQPEDFATYYCQQWSRNPPTFGGGTKLQITRTVAAPSVFIFPPSDEQLKSGTASVVCLLNNFYPREAKVQWKVDNALQSGNSQESVTEQDSKDSTYSLSSTLTLSKADYEKHKVYACEVTHQGLSSPVTKSFNRGEC
chain: not shown
notes: also called masked, uncleavable variant
EC50 [22]: 120 nM
Fold wrt v31931 [4]: > 35 fold
Fold wrt v31931 [23]: > 35 fold
EC50 [24]: > 100 nM
TDCC potency (JIMT-1 cells, pan T cells), fold decrease vs unmasked 30421 [25]: 49000 fold
fold reduced binding vs unmasked control (30421) [26]: > 43 fold
EC50 [7]: > 200 nM
Fold wrt v31929 [7]: > 570 fold
EC50 [8]: 77 nM
EC50 [27]: > 200 nM
Fold wrt v31929 [27]: > 570 fold
EC50 [9]: > 100 nM
Fold wrt WT [11]: > 43 fold
Fold wrt WT [28]: 100 fold
Fold wrt WT [29]: 63 fold

B8: Variant 30426: WT PD-1:HA PD-L1 masked CD3 × Her2 Fab × scFv Fc, with an uncleavable linker (bispecific antibody, human IgG1, kappa, L234A L235A)
heavy: not shown
light: B7 light with I37Q, Y39F, E41M, R96T, M98L, S100A, G102K
chain: not shown
Fold wrt v31931 [30]: > 35 fold
Fold wrt v31929 [27]: > 570 fold
